According to patent US20220119534A1 (DRAGONFLY THERAPEUTICS, published 2022):
“And” between values parts separate entries of the source, which are not always exact repeats. Identical values can stand only once. Each block holds one binder with its values, some of them ahead of it.

Legend:
mFc-hNKG2D [1] = molecular target: T1, mFc-hNKG2D (human, UniProt P26718 73-216); test: SPR Biacore 8K 37 C; mFc-hNKG2D captured on anti-mFc chip, TriNKET as analyte; steady state fit; pH 8.0 control
T1 construct: extracellular domain; Made in house (Dragonfly Tx); the order of tag and ECD follows the name mFc-hNKG2D; also called mFc-tagged human NKG2D; not shown: mouse Fc tag
T1 sequence (looked up): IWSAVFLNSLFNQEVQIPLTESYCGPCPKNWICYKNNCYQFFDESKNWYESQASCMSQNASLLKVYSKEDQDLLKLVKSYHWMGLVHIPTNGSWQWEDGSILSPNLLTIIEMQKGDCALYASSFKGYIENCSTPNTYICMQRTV

mFc-hNKG2D [2] = molecular target: T1, mFc-hNKG2D; test: SPR Biacore 8K 37 C; mFc-hNKG2D captured on anti-mFc chip, TriNKET as analyte; 1:1 kinetic fit; control sample
mFc-hNKG2D [3] = molecular target: T1, mFc-hNKG2D; test: SPR Biacore 8K 37 C; mFc-hNKG2D captured on anti-mFc chip, TriNKET as analyte; steady state fit; un-oxidized control
Human CLEC12A-His = molecular target: T2, Human CLEC12A-His (human, UniProt Q5QGZ9 65-265); test: SPR Biacore 8K 37 C; TriNKET captured on anti-hFc chip, hCLEC12A-His as analyte; 1:1 fit; after 4 wks 40 C in CST pH 7.0, n=2
T2 construct: Recombinant soluble protein made in house (Dragonfly Tx); The hCLEC12A spot of the HuProt array is written under this molecule as well; also called hCLEC12A-His; hCLEC12A; not shown: His tag
T2 sequence: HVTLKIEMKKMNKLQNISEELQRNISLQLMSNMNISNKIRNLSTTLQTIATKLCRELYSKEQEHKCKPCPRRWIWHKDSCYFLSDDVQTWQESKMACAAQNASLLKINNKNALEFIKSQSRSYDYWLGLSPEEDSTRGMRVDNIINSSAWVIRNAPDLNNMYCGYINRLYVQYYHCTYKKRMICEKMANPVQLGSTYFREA

mFc-hNKG2D [4] = molecular target: T3, mFc-hNKG2D (human, UniProt P26718 73-216); test: SPR, 37 C, mFc-hNKG2D captured, kinetic fit; average
T3 construct: extracellular domain; Recombinant mFc-tagged NKG2D dimer, made in house; also called human NKG2D; not shown: mouse Fc tag
T3 sequence (looked up): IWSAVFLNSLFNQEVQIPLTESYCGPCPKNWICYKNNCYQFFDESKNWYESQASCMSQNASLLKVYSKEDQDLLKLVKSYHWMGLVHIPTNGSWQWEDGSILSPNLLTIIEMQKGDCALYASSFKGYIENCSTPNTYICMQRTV

[5] = molecular target: T4, human CLEC12A on cells (HL60, PL21, Ba/F3-hCLEC12A) (human, UniProt Q5QGZ9 1-265); test: flow cytometry, Ba/F3-hCLEC12A cells
T4 construct: Endogenous on the AML lines HL60 and PL21; brought into mouse Ba/F3 cells by retroviral transduction; The cell line stands under assay; also called CLL-1
T4 sequence: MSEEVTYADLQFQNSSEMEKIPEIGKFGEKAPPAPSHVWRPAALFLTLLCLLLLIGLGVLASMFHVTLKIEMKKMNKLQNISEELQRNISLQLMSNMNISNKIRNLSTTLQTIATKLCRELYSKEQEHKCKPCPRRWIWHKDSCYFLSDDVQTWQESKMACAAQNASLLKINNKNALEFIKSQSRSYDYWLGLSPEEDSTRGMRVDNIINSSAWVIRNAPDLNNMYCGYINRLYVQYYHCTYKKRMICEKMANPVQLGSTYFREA

[6] = molecular target: T5, recombinant human CLEC12A-His (human, UniProt Q5QGZ9 65-265); test: SPR 37C, average
T5 construct: also called hCLEC12A-His; hCLEC12A
T5 sequence: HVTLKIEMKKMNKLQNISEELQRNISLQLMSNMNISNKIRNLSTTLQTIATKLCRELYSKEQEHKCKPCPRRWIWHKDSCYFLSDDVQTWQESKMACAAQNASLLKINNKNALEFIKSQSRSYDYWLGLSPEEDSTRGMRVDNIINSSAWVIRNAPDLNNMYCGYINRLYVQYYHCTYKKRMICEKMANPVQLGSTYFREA

[7] = molecular target: T6, recombinant human CD16a V158 (human, UniProt P08637 17-208, biotinylated); test: SPR 25C, kinetic fit
T6 construct: also called FcγRIIIa V158; hCD16aV
T6 sequence (P08637 17-208 F176V limits assumed): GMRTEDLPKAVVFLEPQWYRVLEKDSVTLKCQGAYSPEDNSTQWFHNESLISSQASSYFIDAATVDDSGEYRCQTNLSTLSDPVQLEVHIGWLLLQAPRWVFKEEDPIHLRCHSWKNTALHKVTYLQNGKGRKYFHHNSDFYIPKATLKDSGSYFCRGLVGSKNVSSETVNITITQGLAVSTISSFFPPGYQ

[8] = molecular target: T7, recombinant human CD16a F158 (human, UniProt P08637 17-208); test: SPR 25C, steady state
T7 construct: also called FcγRIIIa F158
T7 sequence (P08637 17-208 limits assumed): as the sequence (P08637 17-208 F176V limits assumed) above, with V160F counted along it

- Kd (mFc-hNKG2D [1]): 695 nM
- Kd (mFc-hNKG2D [2]): 760 nM
- koff (mFc-hNKG2D [2]): 0.129 s⁻¹
- kon (mFc-hNKG2D [2]): 170000 M⁻¹ s⁻¹
- Kd (mFc-hNKG2D [3]): 759 nM
- Kd (Human CLEC12A-His): 0.86 nM
- koff (Human CLEC12A-His): 0.000674 s⁻¹
- kon (Human CLEC12A-His): 784000 M⁻¹ s⁻¹
B1: F3'-1602 TriNKET (bispecific antibody, human IgG1, kappa)
chain: QLQLQESGPGLVKPSETLSLTCTVSGFSLTNYGLHWIRQPPGKCLEWIGVIWSGGKTDYNPSLKSRVTISKDTSKNQFSLKLSSVQAADTAVYYCAKYDYDDSLDYWGQGTLVTVSSGGGGSGGGGSGGGGSGGGGSDIQMTQSPSSLSASVGDRVTITCHASQNINFWLSWYQQKPGKAPKLLIYEASNLHTGVPSRFSGSGSGTRFTLTISSLQPEDIATYYCQQSHSYPLTFGCGTKLEIKGSDKTHTCPPCPAPELLGGPSVFLFPPKPKDTLMISRTPEVTCVVVDVSHEDPEVKFNWYVDGVEVHNAKTKPREEQYNSTYRVVSVLTVLHQDWLNGKEYKCKVSNKALPAPIEKTISKAKGQPREPRVYTLPPCRDELTKNQVSLTCLVKGFYPSDIAVEWESNGQPENNYKTTPPVLVSDGSFTLYSKLTVDKSRWQQGNVFSCSVMHEALHNHYTQKSLSLSPG
heavy: EVQLVESGGGLVKPGGSLRLSCAASGFTFSSYSMNWVRQAPGKGLEWVSSISSSSSYIYYADSVKGRFTISRDNAKNSLYLQMNSLRAEDTAVYYCARGAPIGAAAGWFDPWGQGTLVTVSSASTKGPSVFPLAPSSKSTSGGTAALGCLVKDYFPEPVTVSWNSGALTSGVHTFPAVLQSSGLYSLSSVVTVPSSSLGTQTYICNVNHKPSNTKVDKKVEPKSCDKTHTCPPCPAPELLGGPSVFLFPPKPKDTLMISRTPEVTCVVVDVSHEDPEVKFNWYVDGVEVHNAKTKPREEQYNSTYRVVSVLTVLHQDWLNGKEYKCKVSNKALPAPIEKTISKAKGQPREPQVCTLPPSRDELTENQVSLTCLVKGFYPSDIAVEWESNGQPENNYKTTPPVLDSDGSFFLYSWLTVDKSRWQQGNVFSCSVMHEALHNHYTQKSLSLSPG
light: DIQMTQSPSSVSASVGDRVTITCRASQGISSWLAWYQQKPGKAPKLLIYAASSLQSGVPSRFSGSGSGTDFTLTISSLQPEDFATYYCQQGVSFPRTFGGGTKVEIKRTVAAPSVFIFPPSDEQLKSGTASVVCLLNNFYPREAKVQWKVDNALQSGNSQESVTEQDSKDSTYSLSSTLTLSKADYEKHKVYACEVTHQGLSSPVTKSFNRGEC
notes: Trispecific F3' format: CLEC12A scFv-Fc paired with NKG2D Fab-Fc; Stressed and control samples of the stability studies are the same molecule; also called AB0237

- Kd (mFc-hNKG2D [4]): 779 nM
- EC50 [5]: 0.91 nM
B2: AB0192 TriNKET (other)
chain: EVQLVESGGGVVQPGGSLRLSCAASGFTFNAFGMHWVRQAPGKCLEWVAFISSGSTSIYYANTVKGRFTISRDNSKNTLYLQMNSLRAEDTAVYYCARDGYPTGGAMDYWGQGTSVTVSSGGGGSGGGGSGGGGSGGGGSDIQMTQSPSSLSASVGDRVTITCKASQDIYNYLSWFQQKPGKAPKPLIYRANILVSGVPSRFSGSGSGQDYTFTISSLQPEDIATYYCLQFDAFPFTFGCGTKLEIKGSDKTHTCPPCPAPELLGGPSVFLFPPKPKDTLMISRTPEVTCVVVDVSHEDPEVKFNWYVDGVEVHNAKTKPREEQYNSTYRVVSVLTVLHQDWLNGKEYKCKVSNKALPAPIEKTISKAKGQPREPRVYTLPPCRDELTKNQVSLTCLVKGFYPSDIAVEWESNGQPENNYKTTPPVLVSDGSFTLYSKLTVDKSRWQQGNVFSCSVMHEALHNHYTQKSLSLSPG
heavy: EVQLVESGGGLVKPGGSLRLSCAASGFTFSSYSMNWVRQAPGKGLEWVSSISSSSSYIYYADSVKGRFTISRDNAKNSLYLQMNSLRAEDTAVYYCARGAPIGAAAGWFDPWGQGTLVTVSSASTKGPSVFPLAPSSKSTSGGTAALGCLVKDYFPEPVTVSWNSGALTSGVHTFPAVLQSSGLYSLSSVVTVPSSSLGTQTYICNVNHKPSNTKVDKKVEPKSCDKTHTCPPCPAPELLGGPSVFLFPPKPKDTLMISRTPEVTCVVVDVSHEDPEVKFNWYVDGVEVHNAKTKPREEQYNSTYRVVSVLTVLHQDWLNGKEYKCKVSNKALPAPIEKTISKAKGQPREPQVCTLPPSRDELTENQVSLTCLVKGFYPSDIAVEWESNGQPENNYKTTPPVLDSDGSFFLYSWLTVDKSRWQQGNVFSCSVMHEALHNHYTQKSLSLSPG
light: DIQMTQSPSSVSASVGDRVTITCRASQGISSWLAWYQQKPGKAPKLLIYAASSLQSGVPSRFSGSGSGTDFTLTISSLQPEDFATYYCQQGVSFPRTFGGGTKVEIKRTVAAPSVFIFPPSDEQLKSGTASVVCLLNNFYPREAKVQWKVDNALQSGNSQESVTEQDSKDSTYSLSSTLTLSKADYEKHKVYACEVTHQGLSSPVTKSFNRGEC
notes: the condition stands under assay; also called AB0192 Lot AB0192-005

- Kd [6]: 0.59 nM
- koff [6]: 0.000494 s⁻¹
- kon [6]: 844000 M⁻¹ s⁻¹
- Kd [7]: 234 nM and 235 nM and 243 nM and 241 nM
- koff [7]: 0.022 s⁻¹ and 0.023 s⁻¹
- kon [7]: 96000 M⁻¹ s⁻¹ and 95000 M⁻¹ s⁻¹ and 93000 M⁻¹ s⁻¹
- Kd [8]: 1130 nM and 1120 nM and 1090 nM
B3: F3'-1602 TriNKET (other)
chain: QLQLQESGPGLVKPSETLSLTCTVSGFSLTNYGLHWIRQPPGKCLEWIGVIWSGGKTDYNPSLKSRVTISKDTSKNQFSLKLSSVQAADTAVYYCAKYDYDDSLDYWGQGTLVTVSSGGGGSGGGGSGGGGSGGGGSDIQMTQSPSSLSASVGDRVTITCHASQNINFWLSWYQQKPGKAPKLLIYEASNLHTGVPSRFSGSGSGTRFTLTISSLQPEDIATYYCQQSHSYPLTFGCGTKLEIKGSDKTHTCPPCPAPELLGGPSVFLFPPKPKDTLMISRTPEVTCVVVDVSHEDPEVKFNWYVDGVEVHNAKTKPREEQYNSTYRVVSVLTVLHQDWLNGKEYKCKVSNKALPAPIEKTISKAKGQPREPRVYTLPPCRDELTKNQVSLTCLVKGFYPSDIAVEWESNGQPENNYKTTPPVLVSDGSFTLYSKLTVDKSRWQQGNVFSCSVMHEALHNHYTQKSLSLSPG
heavy: EVQLVESGGGLVKPGGSLRLSCAASGFTFSSYSMNWVRQAPGKGLEWVSSISSSSSYIYYADSVKGRFTISRDNAKNSLYLQMNSLRAEDTAVYYCARGAPIGAAAGWFDPWGQGTLVTVSSASTKGPSVFPLAPSSKSTSGGTAALGCLVKDYFPEPVTVSWNSGALTSGVHTFPAVLQSSGLYSLSSVVTVPSSSLGTQTYICNVNHKPSNTKVDKKVEPKSCDKTHTCPPCPAPELLGGPSVFLFPPKPKDTLMISRTPEVTCVVVDVSHEDPEVKFNWYVDGVEVHNAKTKPREEQYNSTYRVVSVLTVLHQDWLNGKEYKCKVSNKALPAPIEKTISKAKGQPREPQVCTLPPSRDELTENQVSLTCLVKGFYPSDIAVEWESNGQPENNYKTTPPVLDSDGSFFLYSWLTVDKSRWQQGNVFSCSVMHEALHNHYTQKSLSLSPG
light: DIQMTQSPSSVSASVGDRVTITCRASQGISSWLAWYQQKPGKAPKLLIYAASSLQSGVPSRFSGSGSGTDFTLTISSLQPEDFATYYCQQGVSFPRTFGGGTKVEIKRTVAAPSVFIFPPSDEQLKSGTASVVCLLNNFYPREAKVQWKVDNALQSGNSQESVTEQDSKDSTYSLSSTLTLSKADYEKHKVYACEVTHQGLSSPVTKSFNRGEC
notes: CLEC12A scFv-Fc, NKG2D A49MI Fab-Fc, human IgG1 Fc; also called AB0237
